Results: patent US20250163182A1 (Janssen / Centocor, published 2025)

Key:
human ENPP3 on cells [1] = biological target: T1, human ENPP3 on cells (human, UniProt O14638 1-875); test: cell-based or functional assay
T1 sequence (looked up): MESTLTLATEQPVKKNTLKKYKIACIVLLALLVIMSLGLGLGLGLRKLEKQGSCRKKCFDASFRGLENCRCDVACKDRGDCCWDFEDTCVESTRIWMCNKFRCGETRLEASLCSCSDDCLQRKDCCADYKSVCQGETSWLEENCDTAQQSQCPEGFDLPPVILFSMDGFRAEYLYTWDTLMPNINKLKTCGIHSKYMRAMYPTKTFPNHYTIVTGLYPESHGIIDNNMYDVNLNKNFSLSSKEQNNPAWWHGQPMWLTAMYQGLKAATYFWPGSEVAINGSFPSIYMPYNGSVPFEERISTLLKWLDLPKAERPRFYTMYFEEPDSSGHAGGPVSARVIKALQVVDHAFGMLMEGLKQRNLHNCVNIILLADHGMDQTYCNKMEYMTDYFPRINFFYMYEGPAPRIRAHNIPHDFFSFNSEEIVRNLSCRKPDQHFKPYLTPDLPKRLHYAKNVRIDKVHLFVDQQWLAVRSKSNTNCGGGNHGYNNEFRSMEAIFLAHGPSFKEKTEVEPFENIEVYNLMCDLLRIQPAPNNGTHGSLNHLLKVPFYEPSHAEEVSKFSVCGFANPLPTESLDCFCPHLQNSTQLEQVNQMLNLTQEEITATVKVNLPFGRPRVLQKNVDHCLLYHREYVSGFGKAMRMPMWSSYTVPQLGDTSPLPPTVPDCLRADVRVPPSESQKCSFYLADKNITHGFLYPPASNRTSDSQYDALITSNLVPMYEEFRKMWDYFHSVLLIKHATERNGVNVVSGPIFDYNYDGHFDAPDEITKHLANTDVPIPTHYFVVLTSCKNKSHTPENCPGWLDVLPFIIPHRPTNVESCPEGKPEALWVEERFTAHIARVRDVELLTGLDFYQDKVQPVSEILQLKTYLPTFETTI

human ENPP3 on cells [2] = biological target: T1, human ENPP3 on cells; test: cell-based or functional assay; remark: listed apart in the source
human ENPP3 on cells [3] = biological target: T1, human ENPP3 on cells; test: flow cytometry on VMRCRCW cells
human CD3 on T cells [4] = biological target: T2, human CD3 on T cells (human, UniProt P07766 23-207); test: flow cytometry on human T cells, donor 110040278
T2 construct: on T cells it stands in the TCR-CD3 complex; also called human T cells; T cells isolated from healthy human donors

human CD3 on T cells [5] = biological target: T2, human CD3 on T cells; test: flow cytometry on human T cells, donor 110042496
human CD3 on T cells [6] = biological target: T2, human CD3 on T cells; test: flow cytometry on human T cells, donor 888668965
ENPP1 on CHOK1 cells = biological target: T3, ENPP1 on CHOK1 cells (UniProt P22413 1-925, limits assumed); test: flow cytometry on CHO cells overexpressing ENPP1
T3 construct: whole, on cells; also called ectonucleotide pyrophosphatase/phosphodiesterase family member 1; CHO ENPP1 OE
T3 sequence (looked up): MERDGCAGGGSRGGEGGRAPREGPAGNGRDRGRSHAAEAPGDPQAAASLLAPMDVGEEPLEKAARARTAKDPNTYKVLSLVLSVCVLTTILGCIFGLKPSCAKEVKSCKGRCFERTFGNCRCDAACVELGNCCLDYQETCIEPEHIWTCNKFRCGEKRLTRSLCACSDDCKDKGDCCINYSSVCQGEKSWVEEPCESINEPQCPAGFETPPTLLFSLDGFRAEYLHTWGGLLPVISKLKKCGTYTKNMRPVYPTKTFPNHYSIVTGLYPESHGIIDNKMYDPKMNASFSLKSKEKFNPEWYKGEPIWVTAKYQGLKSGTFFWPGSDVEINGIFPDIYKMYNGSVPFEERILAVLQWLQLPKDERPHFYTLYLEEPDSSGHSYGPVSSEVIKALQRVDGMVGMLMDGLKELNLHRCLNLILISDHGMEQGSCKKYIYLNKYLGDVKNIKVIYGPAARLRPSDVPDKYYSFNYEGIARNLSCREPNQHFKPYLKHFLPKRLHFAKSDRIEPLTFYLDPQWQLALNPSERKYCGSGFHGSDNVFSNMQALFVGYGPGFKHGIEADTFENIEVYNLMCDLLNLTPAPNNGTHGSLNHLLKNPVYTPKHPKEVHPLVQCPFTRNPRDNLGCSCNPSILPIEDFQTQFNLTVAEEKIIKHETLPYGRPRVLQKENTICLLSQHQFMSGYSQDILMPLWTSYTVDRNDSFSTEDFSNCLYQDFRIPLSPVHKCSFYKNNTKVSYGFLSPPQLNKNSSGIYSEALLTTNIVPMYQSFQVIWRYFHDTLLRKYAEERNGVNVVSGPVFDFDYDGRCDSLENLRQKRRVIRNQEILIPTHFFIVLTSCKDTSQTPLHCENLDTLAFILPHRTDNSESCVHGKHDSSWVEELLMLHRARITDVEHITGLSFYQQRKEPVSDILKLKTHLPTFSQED

ENPP2 on CHOK1 cells = ENPP2 on CHOK1 cells (UniProt Q13822 36-863); test: flow cytometry on CHO cells overexpressing ENPP2

T2 sequence (P07766 23-207 limits assumed): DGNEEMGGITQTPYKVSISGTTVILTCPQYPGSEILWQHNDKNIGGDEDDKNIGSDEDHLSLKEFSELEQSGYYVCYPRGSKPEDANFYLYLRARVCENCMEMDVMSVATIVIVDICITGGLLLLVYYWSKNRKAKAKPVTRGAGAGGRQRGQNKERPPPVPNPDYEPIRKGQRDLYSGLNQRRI

B1: NPP3B815 (bispecific antibody, human IgG1, kappa, L234A L235A)
heavy 1: EIVLTQSPATLSASPGERVTLSCSASSSVSYMNWYQQKPGCAPRRWIYDSSKLASGVPARFSGSGSGRDYTLTISSLEPEDFAVYYCQQWSRNPPTFGGGTKVEIKGGGSGGSGGCPPCGGSGGQVQLVQSGAEVKKPGSSVKVSCKASGYTFTRSTMHWVKQAPGQGLEWIGYINPSSAYTNYNQKFQGRVTLTADKSTSTAYMELSSLRSEDTAVYYCASPQVHYDYAGFPYWGCGTLVTVSSEPKSSDKTHTCPPCPAPEAAGGPSVFLFPPKPKDTLMISRTPEVTCVVVSVSHEDPEVKFNWYVDGVEVHNAKTKPREEQYNSTYRVVSVLTVLHQDWLNGKEYKCKVSNKALPAPIEKTISKAKGQPREPQVYTLPPSREEMTKNQVSLWCLVKGFYPSDIAVEWESNGQPENNYKTTPPVLDSDGSFFLYSKLTVDKSRWQQGNVFSCSVMHEALHNHYTQKSLSLSPGK
heavy 2: EVQLVESGGGRVKPGGSLRLSCAASGFTFSDYSMNWVRQAPGKGLEWVSSISSISSYVKYADSVKGRFTMSRDNAKNSLFLQMNSLRDEDMAVYYCARGHYFDYWGQGTLVTVSSASTKGPSVFPLAPSSKSTSGGTAALGCLVKDYFPEPVTVSWNSGALTSGVHTFPAVLQSSGLYSLSSVVTVPSSSLGTQTYICNVNHKPSNTKVDKKVEPKSCDKTHTCPPCPAPEAAGGPSVFLFPPKPKDTLMISRTPEVTCVVVSVSHEDPEVKFNWYVDGVEVHNAKTKPREEQYNSTYRVVSVLTVLHQDWLNGKEYKCKVSNKALPAPIEKTISKAKGQPREPQVYTLPPSREEMTKNQVSLSCAVKGFYPSDIAVEWESNGQPENNYKTTPPVLDSDGSFFLVSKLTVDKSRWQQGNVFSCSVMHEALHNRFTQKSLSLSPGK
light: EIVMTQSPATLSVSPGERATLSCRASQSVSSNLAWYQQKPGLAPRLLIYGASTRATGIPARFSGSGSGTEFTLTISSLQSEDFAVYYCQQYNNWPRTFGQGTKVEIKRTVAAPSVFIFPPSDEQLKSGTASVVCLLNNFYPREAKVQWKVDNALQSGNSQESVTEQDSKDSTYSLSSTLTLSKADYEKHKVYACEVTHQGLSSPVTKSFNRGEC
notes: HC2 carries the NPP3B56 Fab and the hole T366S, L368A, Y407V; Fc with L234A, L235A, D265S; The CPPC linker cysteines form disulfides with engineered Cys at L42 and H105 (Chothia); also called NPP3B56×CD3B2030-N106A; ENPP3×CD3 (NPP3B815)
- T-cell activation (CD25) EC50; A704; T-cell donor 110040278; E:T 3:1 (human ENPP3 on cells [1]): 8 pM
- T-cell activation (CD25) EC50; A704; T-cell donor 110042496; E:T 3:1 (human ENPP3 on cells [1]): 0.017 nM
- T-cell activation (CD25) EC50; A704; T-cell donor 110042593; E:T 3:1 (human ENPP3 on cells [1]): 0.013 nM
- T-cell activation (CD25) EC50; A704; T-cell donor 110044049; E:T 3:1 (human ENPP3 on cells [1]): 8 pM
- T-cell activation (CD25) EC50; A704; T-cell donor 110048457; E:T 3:1 (human ENPP3 on cells [1]): 0.01 nM
- T-cell activation (CD25) EC50; A704; T-cell donor 888668965; E:T 3:1 (human ENPP3 on cells [1]): 8 pM
- T-cell activation (CD25) EC50; VMRCRCW; T-cell donor 110040278; E:T 3:1 (human ENPP3 on cells [1]): 7 pM
- T-cell activation (CD25) EC50; VMRCRCW; T-cell donor 110042496; E:T 3:1 (human ENPP3 on cells [1]): 0.015 nM
- T-cell activation (CD25) EC50; VMRCRCW; T-cell donor 110042593; E:T 3:1 (human ENPP3 on cells [1]): 0.017 nM
- T-cell activation (CD25) EC50; VMRCRCW; T-cell donor 110044049; E:T 3:1 (human ENPP3 on cells [1]): 9 pM
- T-cell activation (CD25) EC50; VMRCRCW; T-cell donor 110048457; E:T 3:1 (human ENPP3 on cells [1]): 9 pM
- T-cell activation (CD25) EC50; VMRCRCW; T-cell donor 888668965; E:T 3:1 (human ENPP3 on cells [1]): 0.016 nM
- killing EC50; A704; PBMC donor 110040278; E:T 3:1 (human ENPP3 on cells [2]): 0.052 nM
- killing EC50; A704; PBMC donor 110040278; E:T 5:1 (human ENPP3 on cells [2]): 0.028 nM
- killing EC50; A704; PBMC donor 110042496; E:T 3:1 (human ENPP3 on cells [2]): 0.097 nM
- killing EC50; A704; PBMC donor 110042496; E:T 5:1 (human ENPP3 on cells [2]): 0.061 nM
- killing EC50; A704; PBMC donor 110042593; E:T 1:1 (human ENPP3 on cells [2]): 0.124 nM
- killing EC50; A704; PBMC donor 110042593; E:T 3:1 (human ENPP3 on cells [2]): 0.039 nM
- killing EC50; A704; PBMC donor 110042593; E:T 5:1 (human ENPP3 on cells [2]): 0.015 nM
- killing EC50; A704; PBMC donor 110044049; E:T 1:1 (human ENPP3 on cells [2]): 0.131 nM
- killing EC50; A704; PBMC donor 110044049; E:T 3:1 (human ENPP3 on cells [2]): 0.052 nM
- killing EC50; A704; PBMC donor 110044049; E:T 5:1 (human ENPP3 on cells [2]): 0.016 nM
- killing EC50; A704; PBMC donor 110048457; E:T 3:1 (human ENPP3 on cells [2]): 0.046 nM
- killing EC50; A704; PBMC donor 110048457; E:T 5:1 (human ENPP3 on cells [2]): 0.013 nM
- killing EC50; A704; PBMC donor 888668965; E:T 1:1 (human ENPP3 on cells [2]): 0.107 nM
- killing EC50; A704; PBMC donor 888668965; E:T 3:1 (human ENPP3 on cells [2]): 0.036 nM
- killing EC50; A704; PBMC donor 888668965; E:T 5:1 (human ENPP3 on cells [2]): 0.015 nM
- killing EC50; VMRCRCW; PBMC donor 110040278; E:T 5:1 (human ENPP3 on cells [2]): 0.033 nM
- killing EC50; VMRCRCW; PBMC donor 110042496; E:T 5:1 (human ENPP3 on cells [2]): 0.065 nM
- killing EC50; VMRCRCW; PBMC donor 110042593; E:T 5:1 (human ENPP3 on cells [2]): 0.033 nM
- killing EC50; VMRCRCW; PBMC donor 110044049; E:T 5:1 (human ENPP3 on cells [2]): 0.051 nM
- killing EC50; VMRCRCW; PBMC donor 110048457; E:T 5:1 (human ENPP3 on cells [2]): 0.063 nM
- killing EC50; VMRCRCW; PBMC donor 888668965; E:T 5:1 (human ENPP3 on cells [2]): 0.062 nM
- EC50 (human ENPP3 on cells [3]): 0.5 nM
- EC50 (human CD3 on T cells [4]): 253 nM
- EC50 (human CD3 on T cells [5]): 147 nM
- EC50 (human CD3 on T cells [6]): 197 nM
- binding result (ENPP1 on CHOK1 cells): no binding (tested: 100 nM)
- binding result (ENPP2 on CHOK1 cells): no binding (tested: 100 nM)
